Values of other authors as cited in paper PMC8391295.

Target: CD4 (Homo sapiens) (UniProt P01730)

Prolactin-inducible protein, sequence (P12273 29-146): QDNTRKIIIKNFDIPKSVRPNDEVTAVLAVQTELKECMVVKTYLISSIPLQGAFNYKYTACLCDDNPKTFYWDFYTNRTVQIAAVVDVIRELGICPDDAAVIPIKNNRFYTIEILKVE

Substance: Prolactin-inducible protein (from UniProt P12273)
- Kd: 6 nM
